# Results published in US20240118272A1.
# Key:
# [1] = molecular target: CD63(ECD)-ALP conjugate (human; bovine); experiment: HI-1000 capture immunoassay; calibrator C1, 2.5 ng/mL; run 1
# [2] = molecular target: CD63(ECD)-ALP conjugate (human; bovine); experiment: HI-1000 capture immunoassay; calibrator C1, 2.5 ng/mL; run 2
# [3] = molecular target: CD63(ECD)-ALP conjugate (human; bovine); experiment: HI-1000 capture immunoassay; calibrator C1, 2.5 ng/mL; run 3
# [4] = molecular target: CD63(ECD)-ALP conjugate (human; bovine); experiment: HI-1000 capture immunoassay; calibrator C4, 313 ng/mL; run 1
# [5] = molecular target: CD63(ECD)-ALP conjugate (human; bovine); experiment: HI-1000 capture immunoassay; calibrator C4, 313 ng/mL; run 2
# [6] = molecular target: CD63(ECD)-ALP conjugate (human; bovine); experiment: HI-1000 capture immunoassay; calibrator C4, 313 ng/mL; run 3
# [7] = molecular target: CD63(ECD)-ALP conjugate (human; bovine); experiment: HI-1000 capture immunoassay; calibrator C1, 1.43 mU/L; run 1
# [8] = molecular target: CD63(ECD)-ALP conjugate (human; bovine); experiment: HI-1000 capture immunoassay; calibrator C1, 1.43 mU/L; run 2
# [9] = molecular target: CD63(ECD)-ALP conjugate (human; bovine); experiment: HI-1000 capture immunoassay; calibrator C1, 1.43 mU/L; run 3
# [10] = molecular target: CD63(ECD)-ALP conjugate (human; bovine); experiment: HI-1000 capture immunoassay; calibrator C2, 5.71 mU/L; run 1
# [11] = molecular target: CD63(ECD)-ALP conjugate (human; bovine); experiment: HI-1000 capture immunoassay; calibrator C2, 5.71 mU/L; run 2
# [12] = molecular target: CD63(ECD)-ALP conjugate (human; bovine); experiment: HI-1000 capture immunoassay; calibrator C2, 5.71 mU/L; run 3
# [13] = molecular target: CD63(ECD)-ALP conjugate (human; bovine); experiment: HI-1000 capture immunoassay; calibrator C2, 12.5 ng/mL; run 1
# [14] = molecular target: CD63(ECD)-ALP conjugate (human; bovine); experiment: HI-1000 capture immunoassay; calibrator C2, 12.5 ng/mL; run 2
# [15] = molecular target: CD63(ECD)-ALP conjugate (human; bovine); experiment: HI-1000 capture immunoassay; calibrator C2, 12.5 ng/mL; run 3
# [16] = molecular target: CD63(ECD)-ALP conjugate (human; bovine); experiment: HI-1000 capture immunoassay; calibrator C3, 62.5 ng/mL; run 1
# [17] = molecular target: CD63(ECD)-ALP conjugate (human; bovine); experiment: HI-1000 capture immunoassay; calibrator C3, 62.5 ng/mL; run 2
# [18] = molecular target: CD63(ECD)-ALP conjugate (human; bovine); experiment: HI-1000 capture immunoassay; calibrator C3, 62.5 ng/mL; run 3
# [19] = molecular target: CD63(ECD)-ALP conjugate (human; bovine); experiment: HI-1000 capture immunoassay; calibrator C5, 1563 ng/mL; run 1
# [20] = molecular target: CD63(ECD)-ALP conjugate (human; bovine); experiment: HI-1000 capture immunoassay; calibrator C5, 1563 ng/mL; run 2
# [21] = molecular target: CD63(ECD)-ALP conjugate (human; bovine); experiment: HI-1000 capture immunoassay; calibrator C5, 1563 ng/mL; run 3
# [22] = molecular target: CD63(ECD)-ALP conjugate (human; bovine); experiment: HI-1000 capture immunoassay; calibrator C3, 22.84 mU/L; run 1
# [23] = molecular target: CD63(ECD)-ALP conjugate (human; bovine); experiment: HI-1000 capture immunoassay; calibrator C3, 22.84 mU/L; run 2
# [24] = molecular target: CD63(ECD)-ALP conjugate (human; bovine); experiment: HI-1000 capture immunoassay; calibrator C3, 22.84 mU/L; run 3
# [25] = molecular target: CD63(ECD)-ALP conjugate (human; bovine); experiment: HI-1000 capture immunoassay; calibrator C4, 91.36 mU/L; run 1
# [26] = molecular target: CD63(ECD)-ALP conjugate (human; bovine); experiment: HI-1000 capture immunoassay; calibrator C4, 91.36 mU/L; run 2
# [27] = molecular target: CD63(ECD)-ALP conjugate (human; bovine); experiment: HI-1000 capture immunoassay; calibrator C4, 91.36 mU/L; run 3
# [28] = molecular target: CD63(ECD)-ALP conjugate (human; bovine); experiment: HI-1000 capture immunoassay; calibrator C5, 365.43 mU/L; run 1
# [29] = molecular target: CD63(ECD)-ALP conjugate (human; bovine); experiment: HI-1000 capture immunoassay; calibrator C5, 365.43 mU/L; run 2
# [30] = molecular target: CD63(ECD)-ALP conjugate (human; bovine); experiment: HI-1000 capture immunoassay; calibrator C5, 365.43 mU/L; run 3
# [31] = molecular target: CD63(ECD)-ALP conjugate (human; bovine); experiment: HI-1000 capture immunoassay; calibrator C1, 2.5 ng/mL; mean of 3
# [32] = molecular target: CD63(ECD)-ALP conjugate (human; bovine); experiment: HI-1000 capture immunoassay; calibrator C4, 313 ng/mL; mean of 3
# [33] = molecular target: CD63(ECD)-ALP conjugate (human; bovine); experiment: HI-1000 capture immunoassay; calibrator C1, 1.43 mU/L; mean of 3
# [34] = molecular target: CD63(ECD)-ALP conjugate (human; bovine); experiment: HI-1000 capture immunoassay; calibrator C2, 5.71 mU/L; mean of 3
# [35] = molecular target: CD63(ECD)-ALP conjugate (human; bovine); experiment: HI-1000 capture immunoassay; calibrator C2, 12.5 ng/mL; mean of 3
# [36] = molecular target: CD63(ECD)-ALP conjugate (human; bovine); experiment: HI-1000 capture immunoassay; calibrator C3, 62.5 ng/mL; mean of 3
# [37] = molecular target: CD63(ECD)-ALP conjugate (human; bovine); experiment: HI-1000 capture immunoassay; calibrator C5, 1563 ng/mL; mean of 3
# [38] = molecular target: CD63(ECD)-ALP conjugate (human; bovine); experiment: HI-1000 capture immunoassay; calibrator C3, 22.84 mU/L; mean of 3
# [39] = molecular target: CD63(ECD)-ALP conjugate (human; bovine); experiment: HI-1000 capture immunoassay; calibrator C4, 91.36 mU/L; mean of 3
# [40] = molecular target: CD63(ECD)-ALP conjugate (human; bovine); experiment: HI-1000 capture immunoassay; calibrator C5, 365.43 mU/L; mean of 3
# CD63(ECD)-ALP conjugate (human; bovine), sequence (chain, as listed by the source, chain 1 of 2): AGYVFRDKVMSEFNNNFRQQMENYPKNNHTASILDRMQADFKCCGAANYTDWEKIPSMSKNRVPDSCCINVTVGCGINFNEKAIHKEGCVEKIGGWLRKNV
# CD63(ECD)-ALP conjugate (human; bovine), sequence (P19111 20-506, chain 2 of 2): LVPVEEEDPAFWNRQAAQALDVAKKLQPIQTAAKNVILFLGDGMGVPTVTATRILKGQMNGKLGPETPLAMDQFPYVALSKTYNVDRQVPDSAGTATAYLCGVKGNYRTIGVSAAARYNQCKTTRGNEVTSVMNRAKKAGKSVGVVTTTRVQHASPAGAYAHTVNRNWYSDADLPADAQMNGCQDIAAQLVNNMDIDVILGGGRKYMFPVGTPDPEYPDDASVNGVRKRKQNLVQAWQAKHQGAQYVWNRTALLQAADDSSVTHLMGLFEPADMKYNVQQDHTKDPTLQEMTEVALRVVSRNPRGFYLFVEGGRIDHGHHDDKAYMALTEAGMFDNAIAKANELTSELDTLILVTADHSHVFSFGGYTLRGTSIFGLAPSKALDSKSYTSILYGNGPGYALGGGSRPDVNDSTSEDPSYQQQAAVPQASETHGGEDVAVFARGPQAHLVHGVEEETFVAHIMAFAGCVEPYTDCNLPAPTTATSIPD
substance,measurement,setting,value
anti-CD63 antibody (Clone: H5C6),Count,[1],770 count
same,Count,[2],751 count
same,Count,[3],743 count
same,Count,[4],41700 count
same,Count,[5],41300 count
same,Count,[6],42800 count
same,Count value,[7],900 count
same,Count value,[8],871 count
same,Count value,[9],916 count
same,Count value,[10],2260 count
same,Count value,[11],2380 count
same,Count value,[12],2240 count
same,Count,[13],2160 count
same,Count,[14],2120 count
same,Count,[15],2260 count
same,Count,[16],8690 count
same,Count,[17],9250 count
same,Count,[18],8490 count
same,Count,[19],218000 count
same,Count,[20],205000 count
same,Count,[21],213000 count
same,Count value,[22],9140 count
same,Count value,[23],9240 count
same,Count value,[24],9080 count
same,Count value,[25],43000 count
same,Count value,[26],42200 count
same,Count value,[27],42700 count
same,Count value,[28],206000 count
same,Count value,[29],212000 count
same,Count value,[30],207000 count
same,Count (av),[31],755 count
same,Count (av),[32],41900 count
same,Count value (av),[33],896 count
same,Count value (av),[34],2290 count
same,Count (av),[35],2180 count
same,Count (av),[36],8810 count
same,Count (av),[37],212000 count
same,Count value (av),[38],9160 count
same,Count value (av),[39],42600 count
same,Count value (av),[40],208000 count
